Data taken from article PMC4621449.

Biological target: SO_3165 antitoxin (MNT family), SO_3165-CHis (Shewanella oneidensis (MR-1)) (UniProt Q8ECH7)
Assay: EMSA
Settings: 10 mM HEPES pH 7.3, 20 mM KCl, 1 mM MgCl2, 5% glycerol, NP-40, poly dI-dC, 25 C, 1 h; 0.05 pmol biotin-DNA; 6% gel in 0.5x TBE

Sequence of SO_3165 antitoxin (MNT family), SO_3165-CHis (Shewanella oneidensis (MR-1)) (Q8ECH7 whole entry): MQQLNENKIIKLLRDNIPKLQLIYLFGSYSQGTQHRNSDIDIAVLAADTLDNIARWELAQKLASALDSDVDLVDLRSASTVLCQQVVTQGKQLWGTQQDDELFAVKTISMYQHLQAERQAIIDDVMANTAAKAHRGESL

TACGAGGCCAGAATTTAAAAGCGCAGCCGTCAGAAATGCAGCGATTAGAAGAAGTTGAAACTTCCGATGCAACCTCTTCAGACGCTGAACTACCAATACTTAAGCACACACATATAGAAAACCCGTCCCTACTATACCATAAACAATGTCAGGTACTGCGTATCGTTATAGAATGCACTAAAAAGTTCTAGATTAGAGCCACACAGTGGCGTCTTCAAAACCTGTGTCCGTCCTTTTGGCTCCGCCTTAATATGCTATATACTCATCCCGTATTCATCAAATCGTGCAATGGACCT (double strand) [PSO_3165-3166 promoter]
binding: binds
